Reference: article PMC11398526

Columns and labels:
[1] = target: progesterone receptor isoform A (PR-A), full-length, Strep II tagged (human) (UniProt P06401); assay: SEC-MALS
[2] = target: steroid receptor coactivator 3 (SRC3), full-length, Strep II tagged (human) (UniProt Q9Y6Q9); assay: SEC-MALS
steroid receptor coactivator 3 (SRC3), full-length, Strep II tagged (human), sequence (Q9Y6Q9 whole entry): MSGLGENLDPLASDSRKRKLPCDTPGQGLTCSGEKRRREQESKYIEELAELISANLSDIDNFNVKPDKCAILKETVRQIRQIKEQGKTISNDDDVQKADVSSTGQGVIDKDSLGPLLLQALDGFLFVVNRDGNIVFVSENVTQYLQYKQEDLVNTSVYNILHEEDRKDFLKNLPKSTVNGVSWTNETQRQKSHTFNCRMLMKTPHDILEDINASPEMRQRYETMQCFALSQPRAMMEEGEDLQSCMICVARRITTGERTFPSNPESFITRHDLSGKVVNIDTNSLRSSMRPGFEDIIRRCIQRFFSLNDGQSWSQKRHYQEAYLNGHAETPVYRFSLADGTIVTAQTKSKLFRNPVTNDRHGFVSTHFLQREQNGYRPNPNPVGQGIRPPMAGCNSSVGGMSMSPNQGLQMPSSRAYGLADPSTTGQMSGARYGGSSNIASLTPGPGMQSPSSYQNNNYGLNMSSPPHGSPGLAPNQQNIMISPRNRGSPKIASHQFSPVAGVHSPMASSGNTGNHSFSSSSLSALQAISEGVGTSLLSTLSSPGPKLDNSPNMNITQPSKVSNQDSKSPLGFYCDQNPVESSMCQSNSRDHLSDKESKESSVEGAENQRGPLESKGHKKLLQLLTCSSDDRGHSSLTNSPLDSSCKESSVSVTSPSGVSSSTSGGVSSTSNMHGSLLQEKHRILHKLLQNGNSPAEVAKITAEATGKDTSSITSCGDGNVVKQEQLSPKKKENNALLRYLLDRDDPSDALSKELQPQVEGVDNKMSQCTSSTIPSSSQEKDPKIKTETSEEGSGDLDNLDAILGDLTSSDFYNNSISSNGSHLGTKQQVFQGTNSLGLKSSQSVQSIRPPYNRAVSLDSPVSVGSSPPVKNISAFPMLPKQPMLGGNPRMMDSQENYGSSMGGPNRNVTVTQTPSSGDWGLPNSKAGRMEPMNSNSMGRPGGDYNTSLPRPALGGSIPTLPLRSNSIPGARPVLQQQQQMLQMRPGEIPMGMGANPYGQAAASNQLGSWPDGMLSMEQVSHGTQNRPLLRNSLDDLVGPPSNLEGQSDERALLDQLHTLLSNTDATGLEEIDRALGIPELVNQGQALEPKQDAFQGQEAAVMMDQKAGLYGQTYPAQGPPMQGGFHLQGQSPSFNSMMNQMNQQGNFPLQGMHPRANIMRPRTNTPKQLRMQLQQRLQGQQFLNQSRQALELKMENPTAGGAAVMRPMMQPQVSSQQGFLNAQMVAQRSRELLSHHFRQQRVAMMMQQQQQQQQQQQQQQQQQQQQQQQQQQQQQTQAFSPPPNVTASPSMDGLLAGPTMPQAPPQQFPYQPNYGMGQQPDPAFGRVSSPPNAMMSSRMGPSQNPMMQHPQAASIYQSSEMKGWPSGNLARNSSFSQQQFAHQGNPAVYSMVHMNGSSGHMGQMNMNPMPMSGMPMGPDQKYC

progesterone receptor isoform A (PR-A), full-length, Strep II tagged (human), sequence (P06401 165-933): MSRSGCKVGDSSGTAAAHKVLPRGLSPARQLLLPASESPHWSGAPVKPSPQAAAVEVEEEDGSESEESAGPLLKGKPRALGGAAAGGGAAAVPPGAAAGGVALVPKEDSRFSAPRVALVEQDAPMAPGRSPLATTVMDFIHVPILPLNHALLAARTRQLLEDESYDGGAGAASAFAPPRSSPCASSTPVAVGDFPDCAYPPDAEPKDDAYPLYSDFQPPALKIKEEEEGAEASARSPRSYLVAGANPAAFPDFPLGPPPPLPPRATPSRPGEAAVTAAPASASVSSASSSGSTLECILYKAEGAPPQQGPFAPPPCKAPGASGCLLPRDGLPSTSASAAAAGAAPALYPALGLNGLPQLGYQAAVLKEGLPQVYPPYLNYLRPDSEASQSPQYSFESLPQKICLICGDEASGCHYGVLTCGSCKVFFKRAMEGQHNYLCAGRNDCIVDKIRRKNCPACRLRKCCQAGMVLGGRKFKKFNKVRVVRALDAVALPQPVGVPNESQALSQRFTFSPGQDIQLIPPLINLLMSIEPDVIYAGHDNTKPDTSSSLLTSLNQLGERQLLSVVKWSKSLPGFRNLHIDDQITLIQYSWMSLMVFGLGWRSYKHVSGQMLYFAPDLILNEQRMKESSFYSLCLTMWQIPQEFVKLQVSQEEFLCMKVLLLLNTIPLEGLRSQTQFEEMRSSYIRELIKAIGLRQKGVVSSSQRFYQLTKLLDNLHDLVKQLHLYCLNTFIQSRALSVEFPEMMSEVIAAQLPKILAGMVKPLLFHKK

stoichiometry N (p300 per PR-A) [1]: 0.5
stoichiometry N (p300 per SRC3) [2]: 1
Substance: histone acetyltransferase p300, full-length, Strep II tagged, Q09472 1-2414
